What was measured:
[1] = biological target: anti-His single-chain antibody (scFv) artificial receptor displayed on 293.HissFv.rec cells; test: cell-based or functional assay
[2] = biological target: TSFLCmychis knobless fiber protein (adenovirus serotype 5 (Ad5); Moloney Murine Leukemia Virus) (UniProt P11818); test: antibody-mediated virus capture on 9E10-coated plates, read out by GFP expression in 293.HissFv.rec cells (FACS)
[3] = biological target: wild-type Ad5 fiber (adenovirus serotype 5 (Ad5)) (UniProt P11818); test: as above

| Substance | gene transfer (EGFP expression) by AdGFP-TSFLCmychis into 293.HissFv.rec cells in the presence of the anti-fiber knob antibody [1] [%] | percent functional virus bound (relative to binding to 1D6.14) [2] [%] | percent functional virus bound (relative to binding to 1D6.14) [3] [%] |
| --- | --- | --- | --- |
| TSFLCmychis knobless fiber protein (from UniProt P11818 1-403; P03385 514-553) | > 10 |  |  |
| anti-Myc MoAb 9E10 (antibody) |  | 2.3 | 0.2 |

Source: patent publication US20030082146A1
